Results published in the supplement of paper PMC11246515.
± gives the standard deviation of the averaged measurements.

Assay: total protein half-life in vivo (active degradation + dilution); higher = more stable protein
[1] = E. coli NCM3722 delta-clpP delta-lon delta-hslV, growth: N-lim chemostat, doubling time 6 h
[2] = E. coli NCM3722 delta-clpP, growth: N-lim chemostat, doubling time 6 h
[3] = E. coli NCM3722 delta-lon, growth: N-lim chemostat, doubling time 6 h
[4] = E. coli NCM3722 delta-smpB, growth: N-lim chemostat, doubling time 6 h
[5] = wild type E. coli NCM3722, growth: C-lim chemostat, doubling time 6 h
[6] = wild type E. coli NCM3722, growth: C-lim chemostat, doubling time 12 h
[7] = wild type E. coli NCM3722, growth: N-lim chemostat, doubling time 6 h
[8] = wild type E. coli NCM3722, growth: N-lim chemostat, doubling time 12 h
[9] = wild type E. coli NCM3722, growth: P-lim chemostat, doubling time 6 h
[10] = wild type E. coli NCM3722, growth: P-lim chemostat, doubling time 12 h

Row | Sequence | total protein half-life in vivo [1] | total protein half-life in vivo [2] | total protein half-life in vivo (E. coli NCM3722 delta-hslV, growth: N-lim chemostat, doubling time 6 h) | total protein half-life in vivo [3] | total protein half-life in vivo [4] | total protein half-life in vivo [5] | total protein half-life in vivo [6] | total protein half-life in vivo [7] | total protein half-life in vivo [8] | total protein half-life in vivo [9] | total protein half-life in vivo [10] | total protein half-life in vivo (wild type E. coli NCM3722, growth: C-lim chemostat, doubling time 3 h)
1 | MNSLQILSFVGFTLLVAVITWWKVRKTDTGSQQGYFLAGRSLKAPVIAASLMLTNLSTEQLVGLSGQAYKSGMSVMGWEVTSAVTLIFLALIFLPRYLKRGIATIPDFLEERYDKTTRIIIDFCFLIATGVCFLPIVLYSGALALNSLFHVGESLQISHGAAIWLLVILLGLAGILYAVIGGLRAMAVADSINGIGLVIGGLMVPVFGLIAMGKGSFMQGIEQLTTVHAEKLNSIGGPTDPLPIGAAFTGLILVNTFYWCTNQGIVQRTLASKSLAEGQKGALLTAVLKMLDPLVLVLPGLIAFHLYQDLPKADMAYPTLVNNVLPVPMVGFFGAVLFGAVISTFNGFLNSASTLFSMGIYRRIINQNAEPQQLVTVGRKFGFFIAIVSVLVAPWIANAPQGLYSWMKQLNGIYNVPLVTIIIMGFFFPRIPALAAKVAMGIGIISYITINYLVKFDFHFLYVLACTFCINVVVMLVIGFIKPRATPFTFKDAFAVDMKPWKNVKIASIGILFAMIGVYAGLAEFGGYGTRWLAMISYFIAAVVIVYLIFDSWRHRHDPAVTFTPDGKDSL | 3.19 h | – | – | – | – | – | – | – | – | – | – | –
2 | MTLLNISGLSHHYAHGGFNGKHQHQAVLNNVSLTLKSGETVALLGRSGCGKSTLARLLVGLESPAQGNISWRGEPLAKLNRAQRKAFRRDIQMVFQDSISAVNPRKTVREILREPMRHLLSLKKSEQLARASEMLKAVDLDDSVLDKRPPQLSGGQLQRVCLARALAVEPKLLILDEAVSNLDLVLQAGVIRLLKKLQQQFGTACLFITHDLRLVERFCQRVMVMDNGQIVETQVVGEKLTFSSDAGRVLQNAVLPAFPVRRRTTEKV | 6.58 h | – | – | – | – | – | – | – | – | – | – | –
3 | MSLTRLLIRDFRNIETADLALSPGFNFLVGANGSGKTSVLEAIYTLGHGRAFRSLQIGRVIRHEQEAFVLHGRLQGEERETAIGLTKDKQGDSKVRIDGTDGHKVAELAHLMPMQLITPEGFTLLNGGPKYRRAFLDWGCFHNEPGFFTAWSNLKRLLKQRNAALRQVTRYEQLRPWDKELIPLAEQISTWRAEYSAGIAADMADTCKQFLPEFSLTFSFQRGWEKETEYAEVLERNFERDRQLTYTAHGPHKADLRIRADGAPVEDTLSRGQLKLLMCALRLAQGEFLTRESGRRCLYLIDDFASELDDERRGLLASRLKATQSQVFVSAISAEHVIDMSDENSKMFTVEKGKITD [P0A7H0] | 5.54 ± 0.29 h | 4.43 ± 0.14 h | 3.95 ± 0.053 h | 4.92 ± 0.21 h | 3.93 ± 0.32 h | 5.07 ± 0.41 h | 9.88 ± 0.3 h | 4.32 ± 0.1 h | 8.32 ± 0.12 h | 4.06 ± 1 h | 7.31 ± 0.63 h | –
4 | MEFSPPLQRATLIQRYKRFLADVITPDGRELTLHCPNTGAMTGCATPGDTVWYSTSDNTKRKYPHTWELTQSQSGAFICVNTLWANRLTKEAILNESISELSGYSSLKSEVKYGAERSRIDFMLQADSRPDCYIEVKSVTLAENEQGYFPDAVTERGQKHLRELMSVAAEGQRAVIFFAVLHSAITRFSPARHIDEKYAQLLSEAQQRGVEILAYKAEISAEGMALKKSLPVTL [P0A823] | 6.44 ± 0.13 h | 5.88 ± 0.28 h | – | 5.97 ± 0.26 h | 5.41 ± 0.73 h | 6.23 ± 0.38 h | 11.2 ± 0.24 h | 5.71 ± 0.11 h | 10.2 ± 0.88 h | 5.67 ± 0.24 h | 13.5 ± 1.4 h | 3.39 ± 0.092 h
